Test results taken from patent US10759835B2, “Monomeric streptavidin mutants, methods of using the same and processes of manufacturing proteins” (The Research Foundation for The State University of New York, priority 2016, dated 2020).
Values joined by “and” are separate entries in the source; they are usually repeats but may differ in a detail not shown here. Equal entries are not always repeated.

Columns and labels:
[1] = Fluorescence polarization spectroscopy, biotin dissociation rate (koff); format: binding; conditions: for t1/2: dissociation half-life t1/2=0.693/koff, biotin-fluorescein; for t1/2 / Koff(×10^−3 min^−1): 37° C.; for Koff(×10^−3 min^−1): dissociation of biotin-fluorescein, excess free biotin 100 μM
Method: FIG. 4. In vitro characterization of purified mSA mutants. a) Stability of mSA-RF and mSA-RWT in PBS was measured by circular dichroism spectroscopy with or without biotin. b) Fluorescence polarization spectroscopy was used to measure the dissociation rate of biotin-fluorescein. The dissociation rate, koff, was computed by fitting normalized fluorescence polarization data, or bound fraction f, to an exponentially decaying function, i.e. ƒ=e^−k^off^*t The measurements were taken at 37° C. c) The equilibrium affinity of binding Kd between mSA-RF and biotin-fluorescein was measured by FP. d) mSA-S25H and mSA-RF were analyzed by size exclusion chromatography to estimate their molecular weights in solution. Each mutant eluted with a retention time that was consistent with monomeric streptavidin. The molecular weight standards (arrows) correspond to 66.0, 29.0, 12.4 and 6.5 kDa from left to right.
The binding of biotinylated fluorescein (bf, AnaSpec) was measured using a microplate reader (SpectraMax® i3 Microplate reader from Molecular Devices) in flat bottom 96 well plates (Sterilin Ltd). To measure Kd, 100 nM bf was first mixed with titrating amounts of mSA in PBS containing 0.1 mg/ml bovine serum albumin (BSA). After overnight incubation at room temperature, the fluorescence polarization values were measured and fit to the quadratic binding equation (Hsu and Park, 2010, J Mol Graph Model, 29, 295-308). To measure the off rate (koff), 10 nM bf was first mixed with 50 nM mSA and incubated for 2 hr to form a biotin-mSA complex. To observe dissociation of bf, excess free biotin was added to a final concentration of 100 μM and recording of fluorescence was started immediately. The intensity of polarized fluorescence was measured at various time points and normalized with respect to the value at t=0 min. The intensities were fit to an exponentially decaying function e^−k^off^*t to compute koff. The dissociation half-life t1/2=0.693/koff.
We measured the biotin dissociation rate of various mSA mutants by fluorescence polarization spectroscopy. Table 2 presents the biotin dissociation rate (koff) of various mutants measured by fluorescence polarization spectroscopy. The S25R mutation lowered koff by nearly 21 fold compared to the original mSA and 3.3 fold compared to the S25H mutant (Table 2, FIG. 4b).

[2] = currently available mSA, Lim et al.; cited from earlier work
[3] = tested on: HEK293 cells displaying biotinylated AP-CFP; assay: Fluorescent labeling of cell surface biotinylated receptor, confocal microscopy; format: cell-based
Description: FIG. 5. Fluorescent labeling of HEK293 cells displaying biotinylated receptor. a) HEK293 cells displaying biotinylated AP-CFP were labeled with Alexa488-conjugated mSA-RWT and imaged by fluorescence microscopy. Fluorescence was filtered for (i) CFP and (ii) Alexa488 and the same field of vision was imaged multiple times at regular intervals to measure the stability of labeling. iii. DIC. mSA-RWT binds only CFP positive cells, indicating high specificity of interaction. b-c) HEK293 displaying unrelated protein fused to CFP b) or untransfected HEK293 c) were treated with purified BirA and then labeled with fluorescent mSA-RWT as in part (a) (i)-(iii) the same as before. d) The captured fluorescence images of mSA-RWT—Alexa488 labeled cells (in jpg format) were loaded into MatLab and the amount of CFP and Alexa488 fluorescence was quantified by summing over pixel values. The fluorescence intensity was normalized with respect to the value at t=0. e) Cells labeled with mSA-RF—EGFP were similarly imaged and analyzed to determine the time dependent loss of mSA labeling.
Adherent HEK293 cells were seeded in a 24 well plate (Becton Dickinson) and grown in DMEM supplemented with 10% FBS and antibiotic/antimycotic (Invitrogen). At 50% confluency, the cells were transfected with a plasmid containing pDisplay-AP-CFP-TM. After 2 days the wells were supplemented with 100 nM purified BirA, 5 mM ATP, and 0.3 mM biotin and the biotinylation reaction was carried out overnight. The following morning, the cells were detached from the wells using EDTA Solution (Versene from Life Technologies), washed with PBS containing 0.1% w/v BSA (PBSF), and fixed in 4% paraformaldehyde solution. Prior to microscopy, cells were labeled with 1 μM mSA-RWT—Alexa488 or 1 μM mSA-RF—EGFP in PBSF for 30 minutes. Excess protein was washed away and cells were switched to PBSF with 0.9 mM biotin. Each sample was mounted on slides and imaged using confocal microscopy. The same field of view was imaged every 10 min for 60 min to quantify fluorescence loss as a function of time. The captured images were analyzed with microscope software (ZEN from Zeiss, and MatLab® from MathWorks).
We tested the use of mSA-RWT or mSA-RF in cell imaging, in which biotinylated proteins on the cell surface were labeled with Alexa488 conjugated mSA-RWT or mSA-RF fused to EGFP, and imaged by fluorescence confocal microscopy. Cell imaging is an important test of whether engineered mutants can specifically interact with biotinylated ligands in a heterogeneous environment, in which other potentially competing interactions can interfere with desired detection. […]
To evaluate the stability of labeling, we imaged the labeled cells repeatedly over 1 hr and quantified the fluorescence intensity of Alexa488 or GFP at regular intervals. […]

Row | Molecule | t1/2 [1] [h] | Koff(×10^−3 min^−1) [1] | other results
1 | mSA-R: monomeric streptavidin mutant SEQ ID NO: 2, S25R (S13R in SEQ ID NO: 1 numbering) (protein, Modified streptavidin) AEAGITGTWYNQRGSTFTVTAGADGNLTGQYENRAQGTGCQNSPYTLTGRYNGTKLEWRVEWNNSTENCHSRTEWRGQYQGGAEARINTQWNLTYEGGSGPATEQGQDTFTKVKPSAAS | 4.62 ± 0.2 | 2.51 ± 0.11 ×10^−3 min^−1 | fold lowering of koff compared to the S25H mutant [1]: 3.3 fold; fold lowering of koff compared to the original mSA [1]: ~21 fold and 25 fold; t1/2 ([1]; listed as S25R): 4.62 h
2 | mSA: engineered monomeric streptavidin, reference sequence SEQ ID NO: 1 (Lim et al. 2013) (protein, monomeric streptavidin) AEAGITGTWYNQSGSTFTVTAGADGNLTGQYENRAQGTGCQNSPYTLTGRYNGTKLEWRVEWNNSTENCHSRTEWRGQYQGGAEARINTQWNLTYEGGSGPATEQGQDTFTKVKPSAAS | 0.183 | 63 ×10^−3 min^−1 | biotin dissociation koff [2]: 0.00105 s⁻¹; dissociation t1/2 [2]: 0.183 h
3 | mSA-ERF: monomeric streptavidin mutant SEQ ID NO: 8, Q24E, S25R, T48F (protein, Modified streptavidin) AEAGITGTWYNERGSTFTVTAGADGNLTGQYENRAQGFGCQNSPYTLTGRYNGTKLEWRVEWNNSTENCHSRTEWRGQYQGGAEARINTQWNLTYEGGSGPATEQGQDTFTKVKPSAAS | 1.26 ± 0.03 | 9.15 ± 0.21 ×10^−3 min^−1 | –
4 | mSA-DR: monomeric streptavidin mutant SEQ ID NO: 7, Q24D, S25R (protein, modified streptavidin) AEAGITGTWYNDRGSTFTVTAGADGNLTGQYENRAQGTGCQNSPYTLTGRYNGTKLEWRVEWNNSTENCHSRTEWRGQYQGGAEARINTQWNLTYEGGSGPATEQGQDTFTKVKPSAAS | 0.568 ± 0.02 | 20.3 ± 0.69 ×10^−3 min^−1 | –
5 | mSA-RWT: monomeric streptavidin mutant SEQ ID NO: 4, S25R, T48W, E124T (protein, Modified streptavidin) AEAGITGTWYNQRGSTFTVTAGADGNLTGQYENRAQGWGCQNSPYTLTGRYNGTKLEWRVEWNNSTENCHSRTEWRGQYQGGAEARINTQWNLTYEGGSGPATTQGQDTFTKVKPSAAS | 5.48 ± 0.35 | 2.11 ± 0.13 ×10^−3 min^−1 | Alexa488/GFP fluorescence of labeled cells over time ([3]; after 1 hr, 900 μM biotin in the labeling solution): remained high; labeling of cells displaying biotinylated AP-CFP ([3]; fixed HEK293 cells, 1 μM for 30 minutes): Only CFP positive cells were labeled selectively; off rate / dissociation half-life compared with another mutant ([1]; result in words): longer than mSA-S25R
6 | mSA-ER: monomeric streptavidin mutant SEQ ID NO: 6, Q24E, S25R (protein, Modified streptavidin) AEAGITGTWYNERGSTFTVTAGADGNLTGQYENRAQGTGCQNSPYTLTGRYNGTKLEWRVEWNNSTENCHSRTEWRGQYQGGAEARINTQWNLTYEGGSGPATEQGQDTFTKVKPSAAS | 1.14 ± 0.102 | 10.2 ± 0.91 ×10^−3 min^−1 | –
7 | mSA-ERWT: monomeric streptavidin mutant SEQ ID NO: 10, Q24E, S25R, T48W, E124T (protein, Modified streptavidin) AEAGITGTWYNERGSTFTVTAGADGNLTGQYENRAQGWGCQNSPYTLTGRYNGTKLEWRVEWNNSTENCHSRTEWRGQYQGGAEARINTQWNLTYEGGSGPATTQGQDTFTKVKPSAAS | 1.19 ± 0.0283 | 9.73 ± 0.24 ×10^−3 min^−1 | –
8 | mSA-DRWT: monomeric streptavidin mutant SEQ ID NO: 11, Q24D, S25R, T48W, E124T (protein, Modified streptavidin) AEAGITGTWYNDRGSTFTVTAGADGNLTGQYENRAQGWGCQNSPYTLTGRYNGTKLEWRVEWNNSTENCHSRTEWRGQYQGGAEARINTQWNLTYEGGSGPATTQGQDTFTKVKPSAAS | 0.717 ± 0.0233 | 16.1 ± 0.52 ×10^−3 min^−1 | –
9 | mSA-H: monomeric streptavidin mutant SEQ ID NO: 5, S25H (protein, Modified streptavidin) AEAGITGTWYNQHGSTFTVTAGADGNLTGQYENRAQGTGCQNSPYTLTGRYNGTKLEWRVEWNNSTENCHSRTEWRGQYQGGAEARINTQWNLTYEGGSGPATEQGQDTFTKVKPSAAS | 1.41 ± 0.0517 | 8.19 ± 0.31 ×10^−3 min^−1 | –
10 | mSA-DRF: monomeric streptavidin mutant SEQ ID NO: 9, Q24D, S25R, T48F (protein, Modified streptavidin) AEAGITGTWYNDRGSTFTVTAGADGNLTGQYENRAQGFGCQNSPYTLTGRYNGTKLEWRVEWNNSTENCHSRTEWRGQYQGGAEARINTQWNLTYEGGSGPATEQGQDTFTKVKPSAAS | 0.778 ± 0.0217 | 14.9 ± 0.41 ×10^−3 min^−1 | –
